For experiment [1], the target named is epidermal growth factor receptor (EGFR) on human tumor cells (human, UniProt P00533 25-1210). The experiment can be described thus: cell-based or functional assay.
The target of experiment [2] is T1, recombinant human CD3ε/δ protein (ACRO systems, CDD-H52W1) (human, UniProt P07766 23-126; P04234 22-105).
T1 construct: Bought reagent
The experiment can be described thus: BLI, antibody captured on AHC sensor. The procedure:
(§1) Antibodies were first captured onto an anti-human IgG Fc coated AHC biosensor (Anti-hIgG Fc, Sartorius, 18-5060). Antibodies were diluted to 5 μg/mL and 1.5 nm protein was coupled to the AHC sensor surface in 0.02% PBST.
(§2) After the sensor captures the antibodies, it is used to bind and dissociate with different concentrations of analytes to obtain the KD value of the interaction. The experimental parameters are as follows: Baseline1: 60 s, Loading: 240 s, Baseline2: 180 s, Association: 240 s, Dissociation: 600 s, High sensitivity kinetics: 2 Hz. Kinetic constants were derived based on the rate equation for 1:1 Langmuir binding to obtain equilibrium dissociation constants (KD). The Data Analysis HT 12 software (Sartorius, 50-5029) was used to simultaneously fit binding and dissociation curves to calculate Kₒₙ, and Koff. The affinity KD was calculated based on the below formula: KD=Koff/Kₒₙ.

Experiment [3] addresses T2, recombinant human EGFR protein (ACRO systems, EGR-H5222) (human, UniProt P00533 25-645).
T2 construct: Bought reagent
The experiment can be described thus: BLI, antibody captured on AHC sensor. As for the experimental part: as §1, §2
For orientation: BLI is a label-free optical method that tracks binding on a fibre tip over time.

The target of experiment [4] is T3, recombinant human c-Met protein (human, UniProt P08581 25-932).
T3 construct: Bought
T3 sequence (P08581 25-932 limits assumed): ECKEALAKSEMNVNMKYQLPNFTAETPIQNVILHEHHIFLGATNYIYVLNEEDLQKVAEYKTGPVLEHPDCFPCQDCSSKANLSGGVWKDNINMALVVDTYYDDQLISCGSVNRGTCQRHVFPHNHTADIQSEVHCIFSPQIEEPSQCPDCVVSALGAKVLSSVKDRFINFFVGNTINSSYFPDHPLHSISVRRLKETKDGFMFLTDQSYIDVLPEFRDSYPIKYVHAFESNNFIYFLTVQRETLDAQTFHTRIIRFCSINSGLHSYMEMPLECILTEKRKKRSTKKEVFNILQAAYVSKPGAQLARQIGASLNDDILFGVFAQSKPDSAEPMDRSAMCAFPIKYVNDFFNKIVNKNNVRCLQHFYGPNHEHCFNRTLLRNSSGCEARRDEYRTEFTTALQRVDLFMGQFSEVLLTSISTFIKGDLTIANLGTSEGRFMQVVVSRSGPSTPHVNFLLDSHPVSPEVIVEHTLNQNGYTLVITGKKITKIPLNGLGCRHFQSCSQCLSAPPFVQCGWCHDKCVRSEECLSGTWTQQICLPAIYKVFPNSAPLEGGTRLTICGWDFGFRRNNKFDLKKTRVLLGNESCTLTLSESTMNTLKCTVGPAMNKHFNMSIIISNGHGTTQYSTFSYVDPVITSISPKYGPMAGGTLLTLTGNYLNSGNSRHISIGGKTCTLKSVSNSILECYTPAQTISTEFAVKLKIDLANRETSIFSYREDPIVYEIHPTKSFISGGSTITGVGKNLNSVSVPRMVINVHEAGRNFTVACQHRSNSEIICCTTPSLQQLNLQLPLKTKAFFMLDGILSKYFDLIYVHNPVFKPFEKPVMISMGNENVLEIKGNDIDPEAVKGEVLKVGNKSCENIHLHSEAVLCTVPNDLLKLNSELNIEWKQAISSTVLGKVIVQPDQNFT
The experiment can be described thus: BLI, antibody on AHC sensor. The procedure:
as §1
as §2, with “Kₒₙ” for “Kₒₙ,”

For another experiment, the target named is T4, Insulin.
T4 construct: Bought reagent, coated at 5 ug/mL
The experiment can be described thus: ELISA, insulin coated, 100 nM antibody. As for the experimental part: (§3) The experimental steps are as follows [0420] […] (4) 50 μl anti-human IgG-HRP conjugate (Sigma, AP113P, 1:8000 dilution) was added to each well; the plate was incubated for 1 h at room temperature and washed 6 times with 0.05% PBST; [0424] (5) 50 μl of TMB chromogenic solution (Biopanda, TMB-S-001) was added to each well and incubated at room temperature for 10-15 minutes for color development; [0425] (6) 50 μl of 1M HCl was added to each well to stop the color development, and the absorbance at 450 nm was measured using a microplate reader (Biotek, SYNERGY LX); Data analysis: If the ratio between the absorbance of the antibody and the absorbance of the blank control PBS is ≥3, there is too much non-specific binding.
In general terms: An ELISA detects its analyte on a solid surface through an enzyme-linked reagent.

In experiment [5] the target is T5, keyhole limpet haemocyanin.
T5 construct: Bought reagent, coated at 5 ug/mL; also called KLH
The experiment can be described thus: ELISA, KLH coated, 100 nM antibody. The procedure:
as §3

The target in experiment [6] is T6, recombinant human CD3ε/δ protein (human, UniProt P07766 23-126; P04234 22-105).
T6 construct: Bought heterodimer
T6 sequence (P07766 23-126, stated change not applied, chain 1 of 2): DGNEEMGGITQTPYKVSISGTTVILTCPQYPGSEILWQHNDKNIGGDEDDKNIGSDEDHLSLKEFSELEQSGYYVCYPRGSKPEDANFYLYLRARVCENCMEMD
T6 sequence (P04234 22-105, stated change not applied, chain 2 of 2): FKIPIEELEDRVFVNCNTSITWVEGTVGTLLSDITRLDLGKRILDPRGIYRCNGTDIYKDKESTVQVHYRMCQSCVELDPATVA
The experiment can be described thus: BLI, antibody on AHC sensor. The procedure:
as §1
as §2, with “Kₒₙ” for “Kₒₙ,”

In experiment [7] the target is T7, recombinant human EGFR protein (human, UniProt P00533 25-645).
T7 construct: Bought
The experiment can be described thus: BLI, antibody on AHC sensor. The procedure: as §1
as §2, with “Kₒₙ” for “Kₒₙ,”

T1 sequence (P07766 23-126, stated change not applied, chain 1 of 2): as the sequence (P07766 23-126, stated change not applied, chain 1 of 2) above
T1 sequence (P04234 22-105, stated change not applied, chain 2 of 2): as the sequence (P04234 22-105, stated change not applied, chain 2 of 2) above

B1: EGFR-BsAb bispecific control antibody (TA1-Fab CD3 x EGFR VHH) (bispecific antibody, human IgG4 S228P, kappa, F234A L235A)
heavy: EVKLLESGGGLVQPKGSLKLSCAASGFTFNTYAMNWVRQAPGKGLEWVARIRSKYNNYATYYADSVKDRFTISRDDSQSILYLQMNNLKTEDTAMYYCVRHGNFGNSYVSWFAYWGQGTLVTVSSASTKGPSVFPLAPCSRSTSESTAALGCLVKDYFPEPVTVSWNSGALTSGVHTFPAVLQSSGLYSLSSVVTVPSSSLGTKTYTCNVDHKPSNTKVDKRVESKYGPPCPPCPAPEAAGGPSVFLFPPKPKDTLMISRTPEVTCVVVDVSQEDPEVQFNWYVDGVEVHNAKTKPREEQFNSTYRVVSVLTVLHQDWLNGKEYKCKVSNKGLPSSIEKTISKAKGQPREPQVYTLPPCQEEMTKNQVSLWCLVKGFYPSDIAVEWESNGQPENNYKTTPPVLDSDGSFFLYSRLTVDKSRWQEGNVFSCSVMHEALHNHYTQKSLSLSL
chain: QVQLQESGGGSVQAGGSLKLSCAASGRGFSRYAMGWFRQAPGQDREFVATISWTNSTDYADSVKGRFAISRDNAKNTAYLQMNSLKPEDTAVYYCAADKWASSTRSIDYDYWGQGIQVTVSSESKYGPPCPPCPAPEAAGGPSVFLFPPKPKDTLMISRTPEVTCVVVDVSQEDPEVQFNWYVDGVEVHNAKTKPREEQFNSTYRVVSVLTVLHQDWLNGKEYKCKVSNKGLPSSIEKTISKAKGQPREPQVCTLPPSQEEMTKNQVSLSCAVKGFYPSDIAVEWESNGQPENNYKTTPPVLDSDGSFFLVSRLTVDKSRWQEGNVFSCSVMHEALHNRFTQKSLSLSL
light: QAVVTQESALTTSPGETVTLTCRSSTGAVTTSNYANWVQEKPDHLFTGLIGGTNKRAPGVPARFSGSLIGDKAALTITGAQTEDEAIYFCALWYSNLWVFGGGTKVEIKRTVAAPSVFIFPPSDEQLKSGTASVVCLLNNFYPREAKVQWKVDNALQSGNSQESVTEQDSKDSTYSLSSTLTLSKADYEKHKVYACEVTHQGLSSPVTKSFNRGEC
notes: also called anti-EGFR-BsAb
With B1, in experiment [1], the “killing EC50, NCI-H157 cells (EGFR-positive)” value was determined as 0.02 nM; the “killing EC50, NCI-H1299 cells (EGFR-positive)” value amounted to 0.0318 nM; the “killing EC50, NCI-H1395 cells (EGFR-positive)” value is 0.0108 nM. Moreover, in experiment [2], the Kd came to 9.03 nM, the koff stood at 0.000748 s⁻¹ and the kon was determined as 82900 M⁻¹ s⁻¹. For the same molecule, in experiment [3], the Kd is 9.85 nM, the koff was 0.00305 s⁻¹ and the kon came out at 309000 M⁻¹ s⁻¹.

B2: c-Met-BsAb bispecific control antibody (TA1F anti-CD3 Fab x c-Met VHH) (bispecific antibody, IgG4, not shown: a dimerising Fc or GST)
heavy: EVKLLESGGGLVQPKGSLKLSCAASGFTFNTYAMNWVRQAPGKGLEWVARIRSKYNNYATYYADSVKDRFTISRDDSQSILYLQMNNLKTEDTAMYYCVRHGNFGNSYVSWFAYWGQGTLVTVSSASTKGPSVFPLAPCSRSTSESTAALGCLVKDYFPEPVTVSWNSGALTSGVHTFPAVLQSSGLYSLSSVVTVPSSSLGTKTYTCNVDHKPSNTKVDKRV
chain: QVKLEESGGDLVQPGGSLRLSCVGSGSIFSYTAMGWYRQAPGKQRELVATIHSGGNINYADSVKGRFTISRDNTENTVYLQMNSLKPEDTAVYYCWSLLVGPETRYKDFNFWGRGTQVTVSS
light: B1 light
notes: the text gives VH-CH1-Hinge-Fc (IgG4) and VL-CL (kappa)
On to B2, for which, in experiment [4], the Kd amounted to 0.523 nM, the koff turned out to be 0.000367 s⁻¹ and the kon is 702000 M⁻¹ s⁻¹.

B3: EGFR-BsAb bispecific control antibody (TA1-Fab anti-CD3 x EGFR VHH) (bispecific antibody, human IgG4 S228P, kappa, F234A L235A)
heavy: B1 heavy
chain: B1 chain
light: B1 light
notes: IgG4
For the molecule B3, the “absorbance ratio to PBS blank” value with Insulin was found to be 0.86. The “absorbance ratio to PBS blank” value in experiment [5] came to 0.5. Moreover, in experiment [6], the dissociation constant (Kd) is 5.51 nM, the off-rate constant (koff) was 0.00302 s⁻¹ and the kon turned out to be 547000 M⁻¹ s⁻¹. Besides, in experiment [7], the Kd was determined as 0.645 nM, the koff stood at 0.000401 s⁻¹ and the kon amounted to 622000 M⁻¹ s⁻¹.

Broadly, the Kd is the equilibrium constant for the complex coming apart. As a reminder, the koff is a measure of how fast the partners let go of each other. Broadly, the kon is the rate constant with which the complex forms.

(Values after patent US20240409635A1 (VIBRANT PHARMA, published 2024).)
